Laboratory results from publication PMC6525511.

Target: RIG-5 (construct not stated; SPR) (C. elegans)
Test: SPR

Substance: ZIG-8 (purified; construct not stated; SV-AUC and SPR) (from UniProt G5ED00 22-251) (natural protein)
- Kd: 10 µM
